Target: TRIM28 (endogenous human TRIM28 protein) (human (endogenous in HeLa), UniProt Q13263 1-835)
Assay: cell-based or functional assay

Sequence of TRIM28 (endogenous human TRIM28 protein) (Q13263 whole entry): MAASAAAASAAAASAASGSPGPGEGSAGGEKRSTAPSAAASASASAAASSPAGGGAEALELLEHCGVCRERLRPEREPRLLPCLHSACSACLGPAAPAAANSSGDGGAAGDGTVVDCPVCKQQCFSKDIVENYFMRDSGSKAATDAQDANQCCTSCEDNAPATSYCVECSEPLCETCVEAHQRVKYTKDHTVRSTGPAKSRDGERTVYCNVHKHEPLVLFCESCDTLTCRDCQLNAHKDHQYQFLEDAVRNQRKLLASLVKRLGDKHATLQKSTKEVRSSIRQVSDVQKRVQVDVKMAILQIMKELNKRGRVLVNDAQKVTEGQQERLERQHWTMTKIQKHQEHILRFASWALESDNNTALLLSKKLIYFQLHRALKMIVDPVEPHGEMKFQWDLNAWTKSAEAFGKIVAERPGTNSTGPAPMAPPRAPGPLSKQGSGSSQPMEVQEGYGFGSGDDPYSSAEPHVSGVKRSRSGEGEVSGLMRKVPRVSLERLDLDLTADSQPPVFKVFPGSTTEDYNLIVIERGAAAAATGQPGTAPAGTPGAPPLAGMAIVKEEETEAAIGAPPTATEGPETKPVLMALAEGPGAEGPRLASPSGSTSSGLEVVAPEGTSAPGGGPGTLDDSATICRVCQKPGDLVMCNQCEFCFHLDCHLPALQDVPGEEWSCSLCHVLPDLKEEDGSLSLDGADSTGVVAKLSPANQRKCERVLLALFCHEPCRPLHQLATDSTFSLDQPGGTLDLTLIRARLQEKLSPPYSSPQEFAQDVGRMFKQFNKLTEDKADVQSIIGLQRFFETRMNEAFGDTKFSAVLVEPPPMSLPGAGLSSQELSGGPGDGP

fold repression of a Gal4-site luciferase reporter by Gal4-ZNF10-KRAB-AB in EPC fish cells with co-transfected human TRIM28 (negligible without it): ~2 fold
B1: GST-ZNF10-KRAB-AB (KRAB-AB domain of human ZNF10/Kox1 fused to glutathione S-transferase) (domain or fragment)
chain: not shown

From paper PMC3912051, “The B-Subdomain of the Xenopus laevis XFIN KRAB-AB Domain Is Responsible for Its Weaker Transcriptional Repressor Activity Compared to Human ZNF10/Kox1” (PLoS ONE, 2014)
